Kd data for six molecules are collected here from patent publication US20250161408A1, “PEPTIDIC INHIBITORS OF AMYLOID SELF- AND CROSS-ASSEMBLY” (published 2025).

Experiment [1] deals with T1, Fluos-IAPP (human, UniProt P10997, N-terminal fluorescein).
T1 peptide: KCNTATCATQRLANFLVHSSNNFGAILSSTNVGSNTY
Nature of the experiment: fluorescence spectroscopic titration of Fluos-IAPP (5 nM, pH 7.4) with the ACM; app. KD. The method, then: On the right side of each figure panel, the corresponding binding curves are shown; data are means±SD from 3 binding curves. […] KDs (means±SD from 3 binding curves) are in Table 1.
(§1) Fluorescence spectroscopic studies were performed with a Jasco FP-6500 fluorescence spectrophotometer. Briefly, excitation was at 492 nm and spectra were measured between 500 and 600 nm. All titrations were performed in freshly made solutions of synthetic N-terminal fluorescently labeled peptide (5 nM) and various amounts of unlabeled peptide in 10 mM sodium phosphate buffer, pH 7.4 (1% HFIP) within 2-5 min following solution preparation. […] Apparent binding affinities (app. KDs) were estimated by using 1/1 binding models. However, due to the high self-assembly propensities of involved peptides more complex models might also apply. […] KDs are means (±SD) from three binding curves derived from three independent titration assays.

In experiment [2] the target is FITC-Aβ42 (Homo sapiens (Human), UniProt P05067, N-terminal fluorescein-isothiocyanate-β-Ala). Nature of the experiment: fluorescence spectroscopic titration of FITC-Aβ42 (5 nM, pH 7.4) with the ACM; app. KD. The method, then: Fluorescence spectroscopic studies were performed with a Jasco FP-6500 fluorescence spectrophotometer. Briefly, excitation was at 492 nm and spectra were measured between 500 and 600 nm. All titrations were performed in freshly made solutions of synthetic N-terminal fluorescently labeled peptide (5 nM) and various amounts of unlabeled peptide in 10 mM sodium phosphate buffer, pH 7.4 (1% HFIP) within 2-5 min following solution preparation. […] Apparent binding affinities (app. KDs) were estimated by using 1/1 binding models. However, due to the high self-assembly propensities of involved peptides more complex models might also apply.

Experiment [3] deals with T2, Fluos-Nle3-VF (N-terminal 5,6-carboxyfluorescein; X = norleucine (Nle); N-methyl on Val18 and Phe20).
T2 peptide: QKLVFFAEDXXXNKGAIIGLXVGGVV
Nature of the experiment: self-assembly: fluorescence spectroscopic titration of Fluos-Nle3-VF (5 nM) with Nle3-VF; app. KD. The method, then:
as §1

Non-standard residues stand in square brackets, D forms with d. NMeF = CN[C@@H](Cc1ccccc1)C(=O)O; NMeL = CN[C@@H](CC(C)C)C(=O)O; NMeV = CN[C@H](C(=O)O)C(C)C; Nle = CCCC[C@H](N)C(=O)O

B1: Nle3-LF (peptide)
peptide: H-QK[NMeL]V[NMeF]FAED[Nle][Nle][Nle]NKGAIIGL[Nle]VGGVV-OH
SMILES: CCCC[C@H](NC(=O)[C@H](CC(=O)O)NC(=O)[C@H](CCC(=O)O)NC(=O)[C@H](C)NC(=O)[C@H](Cc1ccccc1)NC(=O)[C@H](Cc1ccccc1)N(C)C(=O)[C@@H](NC(=O)[C@H](CC(C)C)N(C)C(=O)[C@H](CCCCN)NC(=O)[C@@H](N)CCC(N)=O)C(C)C)C(=O)N[C@@H](CCCC)C(=O)N[C@@H](CCCC)C(=O)N[C@@H](CC(N)=O)C(=O)N[C@@H](CCCCN)C(=O)NCC(=O)N[C@@H](C)C(=O)N[C@H](C(=O)N[C@H](C(=O)NCC(=O)N[C@@H](CC(C)C)C(=O)N[C@@H](CCCC)C(=O)N[C@H](C(=O)NCC(=O)NCC(=O)N[C@H](C(=O)N[C@H](C(=O)O)C(C)C)C(C)C)C(C)C)[C@@H](C)CC)[C@@H](C)CC
In the case of B1, the Kd in experiment [1] is 55.4 nM; in experiment [2] it was 11.1 nM.

B2: F3-VF (peptide)
peptide: H-QKL[NMeV]F[NMeF]AEDFFFNKGAIIGL[Nle]VGGVV-OH
SMILES: CCCC[C@H](NC(=O)[C@H](CC(C)C)NC(=O)CNC(=O)[C@@H](NC(=O)[C@@H](NC(=O)[C@H](C)NC(=O)CNC(=O)[C@H](CCCCN)NC(=O)[C@H](CC(N)=O)NC(=O)[C@H](Cc1ccccc1)NC(=O)[C@H](Cc1ccccc1)NC(=O)[C@H](Cc1ccccc1)NC(=O)[C@H](CC(=O)O)NC(=O)[C@H](CCC(=O)O)NC(=O)[C@H](C)NC(=O)[C@H](Cc1ccccc1)N(C)C(=O)[C@H](Cc1ccccc1)NC(=O)[C@H](C(C)C)N(C)C(=O)[C@H](CC(C)C)NC(=O)[C@H](CCCCN)NC(=O)[C@@H](N)CCC(N)=O)[C@@H](C)CC)[C@@H](C)CC)C(=O)N[C@H](C(=O)NCC(=O)NCC(=O)N[C@H](C(=O)N[C@H](C(=O)O)C(C)C)C(C)C)C(C)C
For B2, the Kd in experiment [1] was found to be 15 nM; in experiment [2], 161 nM.

B3: F3-LF (peptide)
peptide: H-QK[NMeL]V[NMeF]FAEDFFFNKGAIIGL[Nle]VGGVV-OH
SMILES: CCCC[C@H](NC(=O)[C@H](CC(C)C)NC(=O)CNC(=O)[C@@H](NC(=O)[C@@H](NC(=O)[C@H](C)NC(=O)CNC(=O)[C@H](CCCCN)NC(=O)[C@H](CC(N)=O)NC(=O)[C@H](Cc1ccccc1)NC(=O)[C@H](Cc1ccccc1)NC(=O)[C@H](Cc1ccccc1)NC(=O)[C@H](CC(=O)O)NC(=O)[C@H](CCC(=O)O)NC(=O)[C@H](C)NC(=O)[C@H](Cc1ccccc1)NC(=O)[C@H](Cc1ccccc1)N(C)C(=O)[C@@H](NC(=O)[C@H](CC(C)C)N(C)C(=O)[C@H](CCCCN)NC(=O)[C@@H](N)CCC(N)=O)C(C)C)[C@@H](C)CC)[C@@H](C)CC)C(=O)N[C@H](C(=O)NCC(=O)NCC(=O)N[C@H](C(=O)N[C@H](C(=O)O)C(C)C)C(C)C)C(C)C
Regarding B3, the Kd was found to be 37.6 nM in experiment [1] and 431 nM in experiment [2].

B4: L3-LF (peptide)
peptide: H-QK[NMeL]V[NMeF]FAEDLLLNKGAIIGL[Nle]VGGVV-OH
SMILES: CCCC[C@H](NC(=O)[C@H](CC(C)C)NC(=O)CNC(=O)[C@@H](NC(=O)[C@@H](NC(=O)[C@H](C)NC(=O)CNC(=O)[C@H](CCCCN)NC(=O)[C@H](CC(N)=O)NC(=O)[C@H](CC(C)C)NC(=O)[C@H](CC(C)C)NC(=O)[C@H](CC(C)C)NC(=O)[C@H](CC(=O)O)NC(=O)[C@H](CCC(=O)O)NC(=O)[C@H](C)NC(=O)[C@H](Cc1ccccc1)NC(=O)[C@H](Cc1ccccc1)N(C)C(=O)[C@@H](NC(=O)[C@H](CC(C)C)N(C)C(=O)[C@H](CCCCN)NC(=O)[C@@H](N)CCC(N)=O)C(C)C)[C@@H](C)CC)[C@@H](C)CC)C(=O)N[C@H](C(=O)NCC(=O)NCC(=O)N[C@H](C(=O)N[C@H](C(=O)O)C(C)C)C(C)C)C(C)C
Turning to B4, the Kd in experiment [1] was found to be 143 nM; in experiment [2], 2.6 nM.

B5: L3-VF (peptide)
peptide: H-QKL[NMeV]F[NMeF]AEDLLLNKGAIIGL[Nle]VGGVV-OH
SMILES: CCCC[C@H](NC(=O)[C@H](CC(C)C)NC(=O)CNC(=O)[C@@H](NC(=O)[C@@H](NC(=O)[C@H](C)NC(=O)CNC(=O)[C@H](CCCCN)NC(=O)[C@H](CC(N)=O)NC(=O)[C@H](CC(C)C)NC(=O)[C@H](CC(C)C)NC(=O)[C@H](CC(C)C)NC(=O)[C@H](CC(=O)O)NC(=O)[C@H](CCC(=O)O)NC(=O)[C@H](C)NC(=O)[C@H](Cc1ccccc1)N(C)C(=O)[C@H](Cc1ccccc1)NC(=O)[C@H](C(C)C)N(C)C(=O)[C@H](CC(C)C)NC(=O)[C@H](CCCCN)NC(=O)[C@@H](N)CCC(N)=O)[C@@H](C)CC)[C@@H](C)CC)C(=O)N[C@H](C(=O)NCC(=O)NCC(=O)N[C@H](C(=O)N[C@H](C(=O)O)C(C)C)C(C)C)C(C)C
For B5, the Kd turned out to be 77.3 nM in experiment [1] and 38 nM in experiment [2].

B6: Nle3-VF (peptide)
peptide: H-QKL[NMeV]F[NMeF]AED[Nle][Nle][Nle]NKGAIIGL[Nle]VGGVV-OH
SMILES: CCCC[C@H](NC(=O)[C@H](CC(=O)O)NC(=O)[C@H](CCC(=O)O)NC(=O)[C@H](C)NC(=O)[C@H](Cc1ccccc1)N(C)C(=O)[C@H](Cc1ccccc1)NC(=O)[C@H](C(C)C)N(C)C(=O)[C@H](CC(C)C)NC(=O)[C@H](CCCCN)NC(=O)[C@@H](N)CCC(N)=O)C(=O)N[C@@H](CCCC)C(=O)N[C@@H](CCCC)C(=O)N[C@@H](CC(N)=O)C(=O)N[C@@H](CCCCN)C(=O)NCC(=O)N[C@@H](C)C(=O)N[C@H](C(=O)N[C@H](C(=O)NCC(=O)N[C@@H](CC(C)C)C(=O)N[C@@H](CCCC)C(=O)N[C@H](C(=O)NCC(=O)NCC(=O)N[C@H](C(=O)N[C@H](C(=O)O)C(C)C)C(C)C)C(C)C)[C@@H](C)CC)[C@@H](C)CC
Take B6: the Kd worked out at 69.5 nM in experiment [1], 14.5 nM in experiment [2] and 51.9 nM in experiment [3].
